Assay results taken from patent publication US8409836B2, “Treatment of cellulosic material and enzymes useful therein” (Roal Oy, priority 2005, dated 2013).
Each block holds one molecule with its values, some of them ahead of it.

Columns and labels:
Type in all cases: biochemical
[1] = Hydrolysis with CBH enzyme mixtures, corn stover; conditions: additional enzymes EGII, bG, 48 h, 45° C., pH 5.0
Description: (§1) The performance of the purified recombinant cellobiohydrolases was evaluated in the hydrolysis studies with purified T. reesei enzymes. Hydrolysis was carried out with controlled mixtures of purified enzymes on several pre-treated substrates. […] In addition, pure T. reesei cellulases (purified as described by Suurnäkki et al., 2000) were used in the enzyme mixtures. The cellobiohydrolases used in the experiment were:
(§2) Each CBH/Cel7 to be tested (dosage 14.5 mg/g dry matter of substrate) was used either together with EGII/Cel5A of T. reesei (3.6 mg/g) or with a mixture containing T. reesei EGI/Cel7B (1.8 mg/g), EGII/Cel5A (1.8 mg/g), xylanase pI 9 (Tenkanen et al. 1992) (5000 nkat/g) and acetyl xylan esterase (AXE) (Sundberg and Poutanen, 1991) (250 nkat/g). All mixtures were supplemented with additional β-glucosidase from a commercial enzyme preparation Novozym 188 (176 nkat/g d.w.). Triplicate tubes containing the enzyme mixture and 10 mg (dry matter)/ml of the substrate suspended in 0.05 M sodium acetate were incubated in mixing by magnetic stirring at 45° C. for 48 h. Reference samples with inactivated enzymes and corresponding substrates were also prepared. The release of hydrolysis products was measured as reducing sugars with DNS method using glucose as standard (Table 30).
Washed wet oxidized corn stover fibre (WOCS).

[2] = Hydrolysis with CBH enzyme mixtures, Avicel; conditions: additional enzymes EGII, bG; 48 h, 45° C., pH 5.0
Description: as §1, §2
Crystalline cellulose (Avicel)

[3] = Thermal stability of purified cellobiohydrolases; conditions: 0.1% BSA, pH 5.0, 60 min, MUL substrate
Description: Thermal stability of the purified cellobiohydrolases was determined at different temperatures. The reaction was performed in the presence of 0.1% BSA at pH 5.0 for 60 min using 4-methylumbelliferyl-β-D-lactoside as substrate. C. thermophilum ALKO4265 CBH/Cel7A and A. thermophilum ALKO4245 CBH/Cel7A were stable up to 65° and 60° C., respectively. The T. reesei reference enzyme (CBHI/Cel7A) retained 100% of activity up to 55° C.

[4] = pH optimum of recombinant CBH/Cel7 proteins; conditions: McIlvaine buffer, pH range 3.0-8.0, MUL, 50° C., 10 min
Description: The recombinant CBH/Cel7 enzyme preparations were characterized in terms of pH optimum and thermal stability. The pH optimum of the recombinant CBH/Cel7 proteins from Thermoascus aurantiacus, Chaetomium thermophilum, and Acremonium thermophilum were determined in the universal McIlvaine buffer within a pH range of 3.0-8.0 using 4-methylumbelliferyl-β-D-lactoside (MUL) as a substrate (FIG. 3A). The pH optimum for Ct Cel7A and At Cel7A enzymes is at 5.5, above which the activity starts to gradually drop. The pH optimum of the recombinant crude Ta Cel7A is at 5.0 (FIG. 3A). Thermal stability of the recombinant Cel7 enzymes was determined by measuring the MUL activity in universal McIlvaine buffer at the optimum pH with reaction time of 1 h.

[5] = Specific activity against Avicel; conditions: 50° C., pH 5.0, 24 h, 1% substrate, 0.25 μM enzyme
Description: (§3) The specific activity of the preparations was determined using 4-methylumbelliferyl-β-D-lactoside (MUL), 4-methylumbelliferyl-β-D-cellobioside (MUG2) or 4-methylumbelliferyl-β-D-cellotrioside (MUG3) as substrate (van Tilbeurgh et al., 1988) in 0.05 M sodium citrate buffer pH 5 at 50° C. for 10 min. Endoglucanase and xylanase activities were determined by standard procedures (according to IUPAC, 1987) using carboxymethyl cellulose (CMC) and birch glucuronoxylan (Bailey et al., 1992) as substrates. Specific activity against Avicel was calculated on the basis of reducing sugars formed in a 24 h reaction at 50° C., pH 5.0, with 1% substrate and 0.25 μM enzyme dosage. The protein content of the purified enzyme preparations was measured according to Lowry et al., 1951. To characterize the end products of hydrolysis, soluble sugars liberated in 24 h hydrolysis experiment, as described above, were analysed by HPLC (Dionex). Purified cellobiohydrolase I (CBHI/Cel7A) of Trichoderma reesei was used as a reference.

[6] = Xylanase activity on birch xylan; conditions: purified cellobiohydrolases, 50° C., pH 5.0
Description: as §3
Acremonium thermophilum ALKO4245 was grown as described in Example 1. The culture supernatant was incubated at 70° C. for 24 hours after which, it was concentrated by ultrafiltration. The pure xylanase was obtained by sequential purification with hydrophobic interaction and cation exchange chromatography followed by gel filtration. The xylanase activity was determined using birch xylan as substrate (procedure of IUPAC 1987). Protein was assayed by BioRad Protein Assay Kit (Bio-Rad Laboratories) using bovine serum albumin as standard.
Thermoascus aurantiacus ALKO4242 was grown as described in Example 1. The pure xylanase was obtained by sequential purification with hydrophobic interaction, anion, and cation exchange chromatography followed by gel filtration. The xylanase activity was determined using birch xylan as substrate (procedure of IUPAC 1987). Protein was assayed by BioRad Protein Assay Kit (Bio-Rad Laboratories) using bovine serum albumin as standard.

[7] = Hydrolysis with CBH enzyme mixtures, willow; conditions: additional enzymes EGII, bG, 48 h, 45° C., pH 5.0
Description: as §1, §2
Washed steam pre-treated willow fibre (pre-treatment for 14 min at 210° C.), dry matter 23.0% (WILLOW).

[8] = Specific activity on MUG2; conditions: purified cellobiohydrolases, 50° C., pH 5.0
Description: as §3

[9] = Specific activity on MUG3; conditions: purified cellobiohydrolases, 50° C., pH 5.0
Description: as §3

[10] = Specific activity on MUL; conditions: purified cellobiohydrolases, 50° C., pH 5.0
Description: as §3

[11] = Endoglucanase activity on carboxymethyl cellulose; conditions: purified cellobiohydrolases, 50° C., pH 5.0
Description: as §3
(§4) Acremonium thermophilum ALKO4245 was grown as described in Example 1. The culture supernatant was incubated at 70° C. for 24 hours after which it was concentrated by ultrafiltration. The pure endoglucanase was obtained by sequential purification with hydrophobic interaction and cation exchange chromatography followed by gel filtration. The endoglucanase activity of the fractions collected during purification was determined using carboxymethyl cellulose (CMC) as substrate (procedure of IUPAC 1987). Protein content was measured by BioRad Assay Kit (Bio-Rad Laboratories) using bovine serum albumine as standard.
as §4, with “Thermoascus aurantiacus ALKO4242 was” for “Acremonium thermophilum ALKO4245 was”, “1.” for “1. The culture supernatant was incubated at 70° C. for 24 hours after which it was concentrated by ultrafiltration.”, “and anion” for “and cation”

[12] = Hydrolysis with CBH enzyme mixtures, spruce; conditions: additional enzymes EGII, bG; 48 h, 45° C., pH 5.0
Description: as §1, §2
Washed steam pre-treated spruce fibre (impregnation with 3% w/w SO2 for 20 min, followed by steam pre-treatment at 215° C. for 5 min), dry matter 25.9% (SPRUCE).

Hydrolysis products as reducing sugars, WOCS ([1]; EGI, XYL, AXE): 5.6 mg/mL
Hydrolysis products as reducing sugars, WOCS [1]: 3.4 mg/mL
Hydrolysis products as reducing sugars, Avicel [2]: 6.0 mg/mL
Hydrolysis products as reducing sugars, WILLOW ([7]; EGI, XYL, AXE): 4.0 mg/mL
Hydrolysis products as reducing sugars, WILLOW [7]: 2.6 mg/mL
Hydrolysis products as reducing sugars, SPRUCE [12]: 2.6 mg/mL
B1: Ct Cel7A: cellobiohydrolase of Chaetomium thermophilum ALKO4265, gene Ct cel7A, amino acid SEQ ID NO: 8, with CBD (protein)
chain: MMYKKFAALAALVAGASAQQACSLTAENHPSLTWKRCTSGGSCSTVNGAVTIDANWRWTHTVSGSTNCYTGNQWDTSLCTDGKSCAQTCCVDGADYSSTYGITTSGDSLNLKFVTKHQYGTNVGSRVYLMENDTKYQMFELLGNEFTFDVDVSNLGCGLNGALYFVSMDADGGMSKYSGNKAGAKYGTGYCDAQCPRDLKFINGEANVGNWTPSTNDANAGFGRYGSCCSEMDVWEANNMATAFTPHPCTTVGQSRCEADTCGGTYSSDRYAGVCDPDGCDFNAYRQGDKTFYGKGMTVDTNKKMTVVTQFHKNSAGVLSEIKRFYVQDGKIIANAESKIPGNPGNSITQEYCDAQKVAFSNTDDFNRKGGMAQMSKALAGPMVLVMSVWDDHYANMLWLDSTYPIDQAGAPGAERGACPTTSGVPAEIEAQVPNSNVIFSNIRFGPIGSTVPGLDGSNPGNPTTTVVPPASTSTSRPTSSTSSPVSTPTGQPGGCTTQKWGQCGGIGYTGCTNCVAGTTCTQLNPWYSQCL
Thermal stability: temperature up to which stable / 100% of activity retained [3]: up to 65 °C
pH optimum [4]: 5.5
Specific activity, Avicel [5]: 1.4 nkat/mg
Specific activity, Xylan [6]: 6.7 nkat/mg
Specific activity, MUG2 [8]: 18.9 nkat/mg
Specific activity, MUG3 [9]: 1.5 nkat/mg
Specific activity, MUL [10]: 54.0 nkat/mg
Specific activity, CMC [11]: 5.5 nkat/mg

Hydrolysis products as reducing sugars, WOCS ([1]; EGI, XYL, AXE): 6.0 mg/mL
Hydrolysis products as reducing sugars, WOCS [1]: 2.9 mg/mL
Hydrolysis products as reducing sugars, Avicel [2]: 4.7 mg/mL
Hydrolysis products as reducing sugars, WILLOW ([7]; EGI, XYL, AXE): 4.1 mg/mL
Hydrolysis products as reducing sugars, WILLOW [7]: 2.9 mg/mL
Hydrolysis products as reducing sugars, SPRUCE [12]: 2.9 mg/mL
B2: Tr Cel7A: purified cellobiohydrolase I (CBHI/Cel7A) of Trichoderma reesei used as a reference (protein, UniProt P62694 18-513, looked up)
Exoglucanase 1: QSACTLQSETHPPLTWQKCSSGGTCTQQTGSVVIDANWRWTHATNSSTNCYDGNTWSSTLCPDNETCAKNCCLDGAAYASTYGVTTSGNSLSIGFVTQSAQKNVGARLYLMASDTTYQEFTLLGNEFSFDVDVSQLPCGLNGALYFVSMDADGGVSKYPTNTAGAKYGTGYCDSQCPRDLKFINGQANVEGWEPSSNNANTGIGGHGSCCSEMDIWEANSISEALTPHPCTTVGQEICEGDGCGGTYSDNRYGGTCDPDGCDWNPYRLGNTSFYGPGSSFTLDTTKKLTVVTQFETSGAINRYYVQNGVTFQQPNAELGSYSGNELNDDYCTAEEAEFGGSSFSDKGGLTQFKKATSGGMVLVMSLWDDYYANMLWLDSTYPTNETSSTPGAVRGSCSTSSGVPAQVESQSPNAKVTFSNIKFGPIGSTGNPSGGNPPGGNRGTTTTRRPATTTGSSPGPTQSHYGQCGGIGYSGPTVCASGTTCQVLNPYYSQCL
Thermal stability: temperature up to which stable / 100% of activity retained [3]: up to 55 °C
Specific activity, Avicel [5]: 0.6 nkat/mg
Specific activity, Xylan [6]: 1.3 nkat/mg
Specific activity, MUG2 [8]: 4.3 nkat/mg
Specific activity, MUG3 [9]: 0.9 nkat/mg
Specific activity, MUL [10]: 21.9 nkat/mg
Specific activity, CMC [11]: 1.0 nkat/mg
